Source: article doi:10.1101/2023.09.14.557733

Target: FgSte2-yellow fluorescent protein (F. graminearum)
Assay: FRET or BRET

Substance: FgSte3-Nano luciferase (receptor)
- BRET50 (galactose concentration for donor induction): 2 % galactose
- mBRET: 110 mBRET
- netBRET: > 0.1 netBRET
